Test: protease stability score; higher = more stable; yeast display proteolysis, trypsin and chymotrypsin;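 also: log10 excess protease needed over predicted unfolded state with 0 meaning unfolded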

DEEVAKKMMEAWMKALQNGNDEQMKKLYDPTVRWEDGNTEKQGLEVVVKLVQTVKKKGIEFQVRKAKVKGNQVEVHYDMKVGDDTVTFTVQFRAQGGRIQEVRVEISEEARKAVKKG
protease stability score: 1.22

DEHTEKKRADEIKHAMRENDEKKLNDQMPPDVRMDVGDKQLHGRDEVIRHLQTQLRHADHVEIKHVEVTNGRVSIDAVFDVNGTRKRQVVVFVFHNGRAKEIHIEDK
protease stability score: 0.861

DETTEASKLLHRINTAWQTNDPDQFQEQFDENARAKVGDKTVHGRKNMNELLKRLVENVDHIDVQVVDFRVDGDKLVIYFRVQNEHNGKHEHDQYAIWAVDRNGHVRAIEWHES
protease stability score: 0.272

EEERQKKAEQWVHAYRHNNEDEIRQLADPNVRFNVGDTRITGRENVMKTLDDQMRHQRVRFHDIQIRVKGDKINITIDAEYESNGRPSRRTLSLEMHLHNGKISHARIDIQG
protease stability score: -0.128

DEDDRRRQARKLASALVTGNHQEVRELADKDVHAEYGDRRYRGREKLDEAAKDMHKQADSLTVRDVKFTGDKVNIDLQLNINGRRLTVSLTAQLENGRFKEIVVQVTDPETLRHVKQ
protease stability score: -0.03

DEEKVQDHNRKLWKLMKTGDSDQLRREMPPTAHAHVGDKSWHGSEAQNAMQEQARMQVDHLEVKKVDVTGDKIHQNVVRKENGRTENRVFAFQVDNGEIKQVEIRRS
protease stability score: -0.146

DEHAKKLAERILEAISNNNEEDIQKNIDPNAKIQVGDRQVHGREDLQKQYQDFRHHARIQNRLRSVRADGDHVTLEIEVVFKVNGNPVNNTVNMSMVIENGRVKMREVQVPEEVQDTIDQ
protease stability score: 0.075

DEKTLKELADHLIRAIETGNEHQFQKMADPNVKAQYGDSKVRGREDLAEYFKTLVDRADHIQFDHWDAQGNKVTMHFVLRVNGVDVRIVVFIHVTNGKIKHVRVHVTDPQEFRRMQG
protease stability score: 0.515

DEEQEKHVSHYLELQKHGNEDELLRTVDPNATATVGDKEYHGMKHVAHHLVNTLKRINVKIDRLDLKVEGNTARIDQVRVQKTNGKPDRYRLKQTVQFHNGRFKRVTADVRR
protease stability score: -0.14

DDEDWHRLAERLFTALRTGDWKELLKMMDPNVNINIGDQTYHGRKDLKNWAQHMREEVDHVEIKSIRIQGNKIVLDITYVTNGQRQNVIFVFSIHNGKVKHVHAKTK
protease stability score: 1.14

DEEKLKRIWQEIMDVWRTNNEDRMTNLFDENATVVVGDETYRGREDVNKALHEFNKRVDNINVTRLDVDGDKANLKAELTYNGRTIDITLRITLRNGRIEEMTVDPEVMKTARS
protease stability score: 0.71

DEEEQRKTAEDIAQVLRTNNPDTMNKLADKNAKASVGDKTYHGRKELSKWIEEQRRRVDHVDIKRFSVDGNEIIIIVILNHNGQNTRVVMVARVKNGRIQSLWRKSK
protease stability score: -0.176

DEDQRRKLEDLLRAYRTGDEKRIVEMADPNVEMHVGDHEVHGMEKIARKQVRTNQEARVDYEDWRLDFQGDKVNFEFDLRRDHNGEPETHKVDMTIVFKNGRIKSQSVRNTK
protease stability score: -0.135

DTDDNRKAAENILTAIQSNDPDERQKNADENVKVNVGDNRISGRENMHEFMKRVWEDVDKITIRSYTFKGDKMTADIHLNFNGQTAKLNVDVNIHNGKAQEVSMDPKADRVVRT
protease stability score: 0.47

DEKVKELFKRLLRALHTGDEEQARRLVDPNARIQVGDQRYHGMDEALRQMLHNMQDIEVSQRYIEVDVSGDRVHYRAEVEKTHNGKPEREQYSATVHAHNGKVVQVEMHTDK
protease stability score: 0.069

DETELRKMQEVQEHNDPDEWKKQADKDVRLKVGNKRLHGREDVHRYLKTHRDQADHIRYKSFDFDGDKADITFHAVVNGRTFEANQEIRIHNGRIQEVNIHYTDDQVQRELEELFG
protease stability score: -0.195

DHSEVTDVFRKLVKVLRTGDESTAAELFDEDVEFEIGDKTYKGREEAHDLLRQFQDMADHVQLNDVRVQGNKVHAEFRADVNGRELHFTQSAEVHNGKIKKVVIRFTNEEQYREIHS
protease stability score: 1.59

DDEVAEELRDIVHNGNWEEMSRNADKNAKVTIGDKQVHGRESAVRVLRIWQKQFDHIQIDRIDKHPGRVRWNARANVNGREVDYHARIHVKNGKVTDVTMEFTDPSQKRQFNRDLN
protease stability score: 0.205

DEDLERKVKELMEVLKSGDESKWMEMVDPNARVQVGDTEIHGRENRREDLKRHKEDSRLDLKSYNVRVHNGQVEVHMSYTYEHNGQPRTSQATARFQLHNGRITEVNVNTTK
protease stability score: -0.309

DERLAKQVLTMMRNERTGNEHEVDKYVDPNARFQVGDQEIHGKEELRKEVSRRRNEMRIDFRVEDMKVHGDKVHLSFKNMKNHNGRPESFRATATVHVHNGTVKSVDIKTTK
protease stability score: -0.453

DEDALDQVEEMMRNNNEQEIADRADKDVEVEYGDHELHGREDMQDWAEKWQQQVDHLEVKSVHKKGDHFKMKLRAVFNGQEYTFVMVVEVHNGKIKNIKYDATSKEVKEIQKEVLK
protease stability score: -0.163

DETKDTEAAERYLENFKTGDPKKLANQFDKNAKVVVGDNEIHGREELQRNNESFVKRVDHIDLQTVDMRGDKFRYQVVIKINGNSVIVNYSIVMHNGKFERNHVDPKDMDRLKQ
protease stability score: 0.363

DDHNARSALTIAFTAIRQGDEQKIRELMDKHVDVHVGDEVVHGRDQVATRLRKLKERVDHIQVKSMSVQGDTLDLNIIFRINGKDLEIKFDIRFRNGRVESMTVRVTDEKKYKDIHQ
protease stability score: 0.475

DEEELKHVAELILKGDEKELSKMMDEDVRVHIGNKEYHGREQAEEAVKTLVDRADHFQVHDMRTSEGQIHVQLVVNINGENVNMYFVAEVHNGRIKEISARARDPREEEKFNKLLG
protease stability score: 1.68

DDEARNLVSEWLKAVETGDPDRVSQNMDPNASYHIGEWNVTGRETVNKLLDDVKTRLRVQFNIQHLDANGDTVDLRAMVLYEHNGKPDTKVYHFKFQQHNGKLVDVRATEDG
protease stability score: 0.736

DEEVQRQLENNWQKMREGDEEHLTRHVDENARFDVGDKRVRGMENYVKDVRREREEMHVNMTYDDMHVQGNEIRFTVRARWDVNGKPYDDNFDHKYEYHNGRLKSAHVRVDEDFERKRRK
protease stability score: -0.089

DEHAKRVVEKAWKALDTGDPKTMEDMLDPNARQRYGDTSVHGRENIIHKLEKDSKEIRFKIKIDNITVHGDKIDVRMLVTERRDGQPRQTHRVATFRIHNGRLEEADFQKDG
protease stability score: -0.073

DDEEKHKLADEVLHILRTGDHDSMARLADENAKAEIGDSRFHGRDHIRKLVKEFRDTADHIRVIDYRVKGDKIVLRMEFVFNGKTSEVNVVMRFHNGRIKDIEVDPTQVRQMEK
protease stability score: 1.03

DDDDLKRITEFLKNEQKGNSEELRKLADPNATFQIGDKTIKGRDKFANEAKKRRDEMHFQYKSVHMRDHNGVAVFSVTWILDHNGKPEENTFTLQAKLTNGKIKMLRLQSRK
protease stability score: -0.012

DEDKVNEFMRHFLDVFETGNEKDVKKMADPNAKIEYGDKTLHGRENLRKVIADWRKRVDRIQIEHVDLQGNKARIIVVLNINGRNIRVDIDVNVHNGEIKSIRFEFTDPKTLQRATS
protease stability score: 0.649

DERDHVRRLLNTWLKVVKRNDEDQARRLADPNARVEVGDKTYSGDEKVVELMHKIRQQYDSIDIHLHTVKREGDFIHAKAKMDAKVNGKQEDVTMFIWFKQHNGEWHILQVIIK
protease stability score: 0.723

DERNKKVLRQFMHAQMRGNPEKAKKLADPNAKFQVGDKTVHGMDEWVRQLDRKKKQIRFEVRVDSVRVHGDNVTMHVEYRATYNGKPYSDKVDYSARLHNGKITKLSAEMDPEFQRELDT
protease stability score: 0.296

DEEAQKHIQQMFHAIDHGNPEKVKELADPNVNIEVGDKRYHGMDTWVREIEKTKKEMRVSVEHVKVDDRNGRAKIDVIMNNEVNGKPVRDRKTATADVHNGKIKSLQYQFSEDQKKKDEG
protease stability score: -0.472

DEEKEFHKMIKELDKVAKRNDEQSVQNLADKDVEVTYGDKSYHGREVLRRMFRDQLTRADKVRITMKSYTVRGDKAHAVLNVVLDHNGRQEHIDVKVTAQADNGRVRLKHVNIP
protease stability score: -0.039

DDDNFRRFKDLQHAENRGDPDRVMELVDPNAHIRVGNTTLKGTKQIKDWVEHILKNWDEQLHSVDEKFQGNHITARYQMEINVNGEPEHFDVTQMATLDNGKIQNRVVRVSEDDLENIER
protease stability score: -0.247

DDEDFKKFKELVETGDWSSLRKQADKNVRQRVGDKQIHGKEEFSRLLKHLQDQIDHVEIKHMQDEPNHLRVDVVWNINGVRVRFQYIVELSNGHIKYIKIDVTDENKLTKLQDLLQ
protease stability score: 0.491

DQRLWERFVKDLEENDEKSWQDLVDKDAKVEVGDTSYQGREHALTAIQKWVHQVDHVEIKSYRIHGDNVQIRMEVVINGRKMQVTVQAHLHNGKMKNIHMEATDRHVVEKLRELIS
protease stability score: 0.039

DEEALHILERFLKLMETNDEETLRDLVDPNAENRVGDKTVHGREDFQREVHTMKKQWRVRFRHIDNQSRPNEAVVRANVNNDINGRPITEDVVFRADFKNGKLKSLHIQMPEEYKKELDK
protease stability score: 0.455

DEDKARRVMEKLFKIVKNGNKDEMKKMGKPNVQYTYVDKRYEGEEAAKKDVEIDKEVGARVQERELEVKGDTVKAVFQYQQGDTTVQTHVEAHYEGDKVKEVKVELTEEVQKIVEQG
protease stability score: -0.248

DERRQAQQFADTFDDNMQENNEEEVVKMADPNAELTVGDKEYHGREEIQKWIKQIHDKVDHLEIHIKSVDVRNGRVTIRARVRVEHNGRQKTMSVDIKAEQKNGRFIIKTMTMG
protease stability score: 1.47

DEEDESRHAEIAIRALAQGDEEELRRQVDPNARVRIGEFNVHGREAAHKAVKTLQEEFDHVDLTHVTTRGEKARVDVKYKKNGKEVTFQLEAKVHDGKVKELQMEKG
protease stability score: -0.241

DEHLQEVWENMLRAQENGDPDSFSRLVDPNVDFVYGDQTVHGREQAMTELKRRTDEIRFEIHHVDVRAQNGHIRVRIDQVKEHNGTPHREKTKNTIVADGDKVKSVEVRSDG
protease stability score: -0.256

DEEELKDWLRNAREIWETGNPDQMEELADPDASIQVGDRTYHGSDEYKKWVEDMHRHADHIEVKEVSIRGDKVHIQVVINVNGRNFTFEFELRVRNGRVKQFNFDPDRMEEIKK
protease stability score: 0.574

DEEQVKKVVEELLKAVHNGNVDQIKKIVKENVEFTLGDKTMKGQEDVEKDVKQLHDKGADFKVDEVEVTGDHATANTKWQIGDQKAHVQVHYQVRDDTVERVEVRWSEDAKKAIKQG
protease stability score: -0.141

DEEVAREMMTKWMRAVQKGDPDTVDKIYNPNGKWKAIDTERQGSEHIKKVMQRVKKQGVEFQVRKAKVEGNQAVVIYDFKLANKTVTFTVELRVQGGRVKEVRVEVDEEAKKDMKKG
protease stability score: 1.14

DRELNQLFRDYVHALKTGDEDELRKQADPNVRIEIGDKEWHGMEKIATEQKKRHDEIRVQIDVKEVSVHNGRVEAELEVVDQQNGRPEKRKVTVTAEYENGKLQHQRYQSDG
protease stability score: -0.442

NEEQLERVVKKWMEAVENADSKKVKELLKPDAEVQFGNRTVKGVDELVKYVKKFMDMGVELEVKEHKVEGGRARYQVVATYGGQTVTAQLTIQAKNGKIEKIEFRDNEEVQTLEKQG
protease stability score: 0.988

DEDQLRNIAHKLNEVWQNGDPDEMKKLLDPNVKFRYGDKTVQGMNEYVTILREMVKRIDHAHVRDFTAHNGRIDIDIQFDVNGRTVSAKVSYVVDNGKVKRAKFDPKNMKKLQS
protease stability score: 0.036

DDENNKILEEYLKAEQTNDPDRAVELMRDDVRMQVGDHRVHGREEVRKRIHQIKDTMRVQIDDLRVTVKGESVVANLDAQVRINGQPVRFRASVRADFHNGKIVHHRVHISEEQQERLKK
protease stability score: 0.272

DEEDMKRVQDLIKAFQEGDPDKVVEQIDPNARIEVGDQHVSGRQHIRETIHNRVEEAEIHYESITLRVRGNTVEVRMVFVENKNGRPKRVHVKIEVQMHNGKVKEIREQEVS
protease stability score: 0.969

From the NTF2 design screens of Basanta et al. (2020)
